According to the DeepSol protein solubility set:

Assay: soluble on expression in E. coli; label from the status in PepcDB or PDB records
For “MSKLLLKTPCTTWTFDSLMACVFGIKVSDVKVYFDILKNGPSKINDIAERINRDRSTVQRAVQNLMNAGLVKRKQVNIKDGGYYYVYEAIPFEETKKIIKKTMEEWCNNMKKWVEELEFEDVVKEYLENIEE”, the “soluble on expression in E. coli” value was “not soluble”.
With “MSKLQQILTYLESEKLDVAVVSDPVTINYLTGFYSDPHERQMFLFVLADQEPLLFVPALEVERASSTVSFPVVGYVDSENPWQKIKHALPQLDFKRVAVEFDNLILTKYHGLKTVFETAEFDNLTPRIQRMRLIK” the “soluble on expression in E. coli” value was “soluble”.
For “MSKNDTEKILLDDLLFLQRAPYYESFSVYKIDSNKYIENENDSHIDRWLSMAVSGDDKTEAPTEFVIEPGGCLISLVVDRRLISLY”, the “soluble on expression in E. coli” value was “not soluble”.
With “MSKNRDPLLANLNAFKSKVKSAPVIAPAKVGQKKTNDTVITIDGNTRKRTASERAQENTLNSAKNPVLVDIKKEAGSNSSNAISLDDDDDDEDFGSSPSKKVRPGSIAAAALQANQTDISKSHDSSKLLWATEYIQKKGKPVLVNELLDYLSMKKDDKVIELLKKLDRIEFDPKKGTFKYLSTYDVHSPSELLKLLRSQVTFKGISCKDLKDGWPQCDETINQLEEDSKILVLRTKKDKTPRYVWYNSGGNLKCIDEEFVKMWENVQLPQFAELPRKLQDLGLKPASVDPATIKRQTKRVEVKKKRQRKGKITNTHMTGILKDYSHRV” the “soluble on expression in E. coli” value was “soluble”.
With “MSKPSTPAPASADQNGDSATRQTAQTTETPASLLSAVGNGAPNMAGFTLNRDMVPFFPYQLQNPMLQPPQNSLENAIVHSLGTLAAQSSMFGQLCEKMLKAQEEARADQRSIREEHRAEREKADERSQQNMDKMMALVHSLVERVDRSHASSYDVVGQKNPSSSSLKPAKRVKSAVVRQSNLAKRTGAPVDAAKELKKIRDEENRNHGRSAERDNVFIGAVLVGKGSQYDKDLEKFKSFRCRTCNEVSQTKEQLVDHFSNNHAGELGARRSLRIKQTSC” the “soluble on expression in E. coli” value was “not soluble”.
For “MSKQDLLLEIGLEEMPARFLNESMVQLGDKLTGWLKEKNITHGEVKLFNTPRRLAVFVKDVAEKQDDIKEEAKGPAKKIALDADGNWTKAAIGFSKGQGANVEDLYIKEVKGIEYVFVQKFQAGQETKSLLPELSGLITSLHFPKNMRWGNEDLRYIRPIKWIVALFGQDVIPFSITNVESGRTTQGHRFLGHEVSIESPSAYEEQLKGQHVIADPSVRKQMIQSQLETMAAENNWSIPVDEDLLDEVNHLVEYPTALYGSFESEFLSIPEEVLVTTMKEHQRYFPVKDKNGDLLPHFITVRNGNSHAIENVARGNEKVLRARLSDASFFYKEDQKLNIDANVKKLENIVFHEELGSLADKVRRVTSIAEKLAVRLQADEDTLKHVKRAAEISKFDLVTHMIYEFPELQGIMGEKYARMLGEDEAVAAAVNEHYMPRSAGGETPSTFTGAVVAMADKLDTIASFFSIGVIPTGSQDPYGLPRQASGIVAILLDRNWGISFEELLTFVQTDKENELLDFFTQRLKYVLNAEQIRHDVIDAVLESSELEPYSALHKAQVLEQKLGAPGFKETAEALGRVISISKKGVRGDIQPDLFENEYEAKLFDAYQTAKENLQENFSKKDYEAALASLAALKEPIDAYFDHTMVIADNESLKANRLAQMVSLADEIKSFANMNALI”, the “soluble on expression in E. coli” value was “not soluble”.
In the case of “MSKQENIISHNTDSSLLNTVMQQMKERIINEGDKPHVTVETQLKILQELSQFGFGQFLIKNQGINGYWTHYMLTHPWFGRKTGLNNSREPLSNMECFLLDKAPTMLATQQRFELFLQENQKALVNGATLASIPCGMLGELLYLDFNGINNIQLMGIDYDQAALEDANALAKERNLDRFTTLVCRNAWELNIQEEFDLISSNGLNIYEPDDNKVLDLYQQFHTALKKGGKLVTSFLTPPPHLSSQCEWIFNKINPEDLLLQRIIFSDILNAKFQCYRSSQQTQKQLALAGFKNIHFLYDEAHLFPTVIAEK”, the “soluble on expression in E. coli” value is reported as “not soluble”.
For “MSKSALDPVEFLKGALEIPSPSGKERAVAEYLAEGMQKLGLKGFVDEADNARGQVGEGPVQVVLLGHIDTVPGQIPVRLEGGRLFGRGAVDAKGPFVAMIFAAAGLSEEARRRLTVHLVGATEEEAPSSKGARFVAPRLKPHYAVIGEPSGWEGITLGYKGRLLVKARREKDHFHSAHHEPNAAEELISYFVAIKAWAEAMNVGQRPFDQVQYTLRDFRVHPAELRQVAEMFFDLRLPPRLPPEEAIRHLTAYAPPTIELEFFGREVPYQGPKDTPLTRAFRQAIRKAGGRPVFKLKTGTSDMNVLAPHWPVPMVAYGPGDSTLDHTPYEHVEVAEFLKGIEVLRGALEALAQTHAGEKEG”, the “soluble on expression in E. coli” value was “soluble”.
In the case of “MSKSGVPRLLTASERERLEPFIDQIHYSPRYADDEYEYRHVMLPKAMLKAIPTDYFNPETGTLRILQEEEWRGLGITQSLGWEMYEVHVPEPHILLFKREKDYQMKSQQRGG”, the “soluble on expression in E. coli” value is reported as “soluble”.
For “MSKSWGKFIEEEEAEMASRRNLMIVDGTNLGFRFKHNNSKKPFASSYVSTIQSLAKSYSARTTIVLGDKGKSVFRLEHLPEYAGNRDEKYAQRTEEEKALDEQFFEYLKDAFELCKTTFPTFTIRGVEADDMAAYIVKLIGHLYDHVWLISTDGDWDTLLTDKVSRFSFTTRREYHLRDMYEHHNVDDVEQFISLKAIMGDLGDNIRGVEGIGAKRGYNIIREFGNVLDIIDQLPLPGKQKYIQNLNASEELLFRNLILVDLPTYCVDAIAAVGQDVLDKFTKDILEIAEQ”, the “soluble on expression in E. coli” value was “soluble”.
In the case of “MSKTRIAFVGAGNMAASLIGGLRAQGVEASLICASAPGAETRERISTEHGIEVFADNAEAVKGADVVVLAVKPQMMKSVCQALKASLEAHQLIVSVAAGITCASLTQWLGDQPVVRCMPNTPSLLRQGASGLYATDKVSPTQREQAEQLLSAVGVAVWVEQEKHMDAVTAVSGSGPAYFFLMMEAMTAAGVKLGLPEDIAKKLTLQTALGSALIATGSNVDAGELRRRVASPGGTTEAAIKAFQAGGFEALVETALTAADHRAAELAEQLGKLEHHHHHH”, the “soluble on expression in E. coli” value is reported as “not soluble”.
For “MSKVIIPKIVGHRGVGKEGLAPENTLRSFVLCMERNIPYIETDLRVCKTGEIVLFHGTPEGTIPFYKDGTSRIGDLSLEELKRLDVGGGHTIPSLEELFVAIEEQKFNLKLNLELKGEEWKRKESGDHQRLLLLVEKYHMQERVDYCSFHHEALAHLKALCPDVKITYLFNYMGQPTPLDFVEQTQKACYGDANGVSMLFHYLTKEQVCTAHEKGLSVTVWMPWIFDDSEEDWKKCLELQVDLICSNYPFGLMNFLSNISE”, the “soluble on expression in E. coli” value was “soluble”.
In the case of “MSKYGCPTSDTDPNSVTMITKRGPVNKTLKSAAQLNAAQRAGVDISTEKKTMSGGNRQHSANKNTLRLDEETEELHHQKVALSLGKVMQQARATKGWTQKDLSTQINEKPQVVGEYESGKAVPNQQIMAKMERALGVKLRGKDIGMPFSTKPPAKK”, the “soluble on expression in E. coli” value is reported as “not soluble”.
In the case of “MSLAAEKLRLVADPWPPFTDALLLNGGLATDIVNTALKRAGYTTLYEQVPWARALLGLSEGRHDVLINAWFSEDRKKIGQFSAEYLLNRIRFIKRKESPIDALTHEQLHHYLIAVVRGYAYSPAFDSDVLLKKVPVQNFSTAVRMLAAERVDLTLEDEYVARYNLALEANEVRARVEFLPGSLSENSLHILVSLKNPHHAKIVADFDREIAAMKADGTYEELLRLHGLQGPPEEGHHHHHH”, the “soluble on expression in E. coli” value is reported as “soluble”.
For “MSLADIYAFPTGESNDGRPVRPQGVPDEVWAAVESVSTMKRIHDVRYREIPVPSTLADYGIGVEFEAGERALGDAFSAGLGSDAEPRIATGWIMMLYAHELRIDWDSNWRCVAFARLPLETAENDSLTPGMYWDDMCDYFDGIEPDSVSGTVTVTQNTAFGSMAGSTSAGCEIRVSWTPLDGTGPDGTMDAGAQVRSWAAFIRSTIRFEEDDASEGHHHHHH”, the “soluble on expression in E. coli” value was “soluble”.
With “MSLAEIAYITAKADLPFWDTVGKGVKAVAEANGYAFSELDSKLSAEMQLNNVRQAIDRRVAGIVISPTNSKSAEEALILARRAKIPVAIADIGASGGDYVSFVKSDNYRGAYDVGTELAKAMKAQNWASGAYGMVTIELSRKNGQDRTNGFRDAMKDAGFPREIVLRQMKDYSAEETYRYVKEMLAAHPGLRGFFIETDQPVAGALRAIREAGKEKQLLLVSFDAMPDVVRLLKSGALVAVGMQQPYLMGSSAAGALVSRLRGHPPAKEILVPVLVATGRNVDQLMPVAARTVFGKPLKEGHHHHHH” the “soluble on expression in E. coli” value was “soluble”.
In the case of “MSLAEIRIRPLEVSALSRRLCIWADIVDASGVLLNSAPVWFDVSAMGEVWTPSTDAEKGTAVDVHPLKREFIDVAAAGIEPASRREIEGKEFSRRVESGQPITKDVLRAIPEIKNGDIVFVEVRVGTVFLRSRAEAMHDAYIGDRIKLKSVSSGETMLGVVLSAGRVWIGSEGHHHHHH”, the “soluble on expression in E. coli” value is reported as “not soluble”.
